Reference: publication PMC4059916 (2014)
Numbering of substitutions follows the chain as printed. In names and notes the source's numbering stands.

T1: Rab32 1-225 (Q85L), GTP hydrolysis-defective mutant, GST removed (UniProt Q13637 1-225, Q85L)
T1 sequence: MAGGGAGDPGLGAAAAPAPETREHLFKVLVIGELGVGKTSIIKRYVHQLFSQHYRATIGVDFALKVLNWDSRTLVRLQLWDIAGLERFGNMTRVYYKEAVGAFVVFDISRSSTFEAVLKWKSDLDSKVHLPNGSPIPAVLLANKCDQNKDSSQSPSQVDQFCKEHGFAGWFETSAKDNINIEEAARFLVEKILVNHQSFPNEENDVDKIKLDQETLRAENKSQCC

B1: Rab32 (Q85L/G89T/N90S/V94L) (protein)
chain: T1 sequence with G89T, N90S, V94L
modifications: Construct limits taken from the parent Rab32 1-225 (PDB 4CYM entity 1); Mg2+ and GTP-analogue state (GppCp or GTPgammaS) presumed
B2: VARP451-640His6 Q509A/Y550A (domain or fragment)
chain: PSVVTPFSRDDRGHTPLHVAAVCGQASLIDLLVSKGAMVNATDYHGATPLHLACQKGYASVTLLLLHYKASAEVQDNNGNTPLHLACTYGHEDCVKALVAYDVESCRLDIGNEKGDTPLHIAARWGYQGVIETLLQNGASTEIQNRLKETPLKCALNSKILSVMEAYHLSFERRQKSSEAPVQSPQRSVD
B3: VARP451-640His6 (first ankyrin repeat domain, ANKRD1), wild type (domain or fragment)
chain: B2 chain with A59Q, A100Y

What was measured:
Assay in all cases: ITC
[1] = target: B3
[2] = target: T1, Rab32 1-225 (Q85L), GTP …
[3] = target: Rab32(Q85L) mutated at M91/R93 (Switch-II), GST removed, as used in ITC (UniProt Q13637 1-225, Q85L)

Q: Which Kd [1] does the source give for B1 here?
A: 13 µM

Q: For B2, which Kd [2] is on record?
A: > 300 µM

Q: For B3, which Kd [3] is on record?
A: > 300 µM
